Where “and” joins values, the source holds several entries; their conditions need not be identical. Equal entries are not always repeated.
Key:
[1] = target: T1, human OX40 expressed on cells (human, UniProt P43489 29-277); assay: cell-based or functional assay
T1 sequence: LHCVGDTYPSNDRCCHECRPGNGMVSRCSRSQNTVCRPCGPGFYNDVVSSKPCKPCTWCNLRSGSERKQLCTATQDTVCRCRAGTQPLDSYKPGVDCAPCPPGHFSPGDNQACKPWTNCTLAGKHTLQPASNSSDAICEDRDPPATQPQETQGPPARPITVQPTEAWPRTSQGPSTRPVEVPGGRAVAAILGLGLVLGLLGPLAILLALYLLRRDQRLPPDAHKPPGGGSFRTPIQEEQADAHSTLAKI

[2] = target: T1, human OX40 expressed on cells; assay: flow cytometry, OX40-transfected HEK293F cells, gMFI (PE)
Method: (§1) Transfected cells were seeded in 96-well plates (30,000 cells/well; ThermoFisher, cat. no. 163320) for sequential incubations, with washing steps in between using fluorescence-activated cell sorting (FACS) buffer 1 (phosphate buffered saline [PBS; Lonza, cat. no. BE17-517Q] supplemented with 0.1% bovine serum albumin [BSA; Roche, cat. no. 10735086001] and 0.02% sodium azide [NaN₃; Bio-World, cat. no. 41920044-3]) supplemented with 2 mM ethylenediaminetetraacetic acid (EDTA; Sigma-Aldrich, cat. no. 03690). […] Cells were then washed using EDTA-supplemented FACS buffer 1, resuspended in a 30 μL solution of viability marker ToPro-3 (Invitrogen, cat. no. T3605, diluted 1:10,000) in EDTA-supplemented FACS buffer 1, and subsequently analyzed on an iQue® 3 flow cytometer (Satorius). Data were analyzed using FlowJo software and were visualized using GraphPad Prism.

[3] = target: T2, cynomolgus monkey OX40 expressed on HEK293F cells (cynomolgus monkey (Macaca fascicularis), UniProt P43489 29-277 (human entry)); assay: as above
T2 construct: full-length entry
T2 chain: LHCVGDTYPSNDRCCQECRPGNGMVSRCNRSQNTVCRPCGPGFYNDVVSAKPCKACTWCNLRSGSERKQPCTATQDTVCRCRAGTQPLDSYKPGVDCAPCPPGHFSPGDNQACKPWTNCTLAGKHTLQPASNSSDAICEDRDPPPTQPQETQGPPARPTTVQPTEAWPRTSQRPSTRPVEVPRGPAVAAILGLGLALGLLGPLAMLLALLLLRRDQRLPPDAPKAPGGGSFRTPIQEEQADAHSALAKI
Method: as §1

[4] = target: T1, human OX40 expressed on cells; assay: flow cytometry, human T cells activated 72 h with anti-CD3/CD28 beads
[5] = target: T1, human OX40 expressed on cells; assay: flow cytometry, loss of sOX40L (2 µg/mL) binding to activated human CD4+ T cells; competitor sOX40L
Method: Stimulated PBMCs were pelleted, resuspended in FACS buffer 2 (DPBS with 2% heat-inactivated FBS [Sigma-Aldrich, cat. no. F7524] and 2 mM EDTA [Sigma-Aldrich, cat. no. 03690]), and seeded (100,000 cells/well) in round-bottom 96-well plates (VWR International GmbH, cat. no. 734-197). […] Next, cells were washed twice in FACS buffer, and incubated with 30 μL of the antibody panel described in Table 11 diluted in FACS buffer 2 containing 1:1,500 Fixable Viability Stain eFluor 780 at 4° C. for 20 min, protected from light. The cells were subsequently washed twice with 120-150 μL FACS buffer 2 and measured on a BD FACSCelesta flow cytometer using a BD High Throughput sampler and subsequent analysis was done using FlowJo software.

[6] = target: T3, human FcγRIa expressed on cells (human, UniProt P12314 16-374); assay: flow cytometry, FcγRIa-transfected ExpiCHO-S cells, gMFI (PE)
T3 construct: whole, on cells; also called FcγR1a; CD64
T3 sequence (P12314 16-374): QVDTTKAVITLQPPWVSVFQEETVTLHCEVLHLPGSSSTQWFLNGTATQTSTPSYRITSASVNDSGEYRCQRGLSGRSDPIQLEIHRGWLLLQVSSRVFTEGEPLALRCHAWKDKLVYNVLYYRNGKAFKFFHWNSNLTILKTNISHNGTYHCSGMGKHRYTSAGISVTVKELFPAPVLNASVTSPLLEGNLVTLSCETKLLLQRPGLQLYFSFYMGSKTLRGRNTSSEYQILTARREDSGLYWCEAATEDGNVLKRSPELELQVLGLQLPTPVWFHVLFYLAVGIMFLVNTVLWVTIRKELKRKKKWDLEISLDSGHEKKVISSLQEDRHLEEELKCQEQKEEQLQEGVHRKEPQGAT
Method: Data were analyzed using FlowJo software and were visualized using GraphPad Prism.

B1: IgG1-CD134-003-HC6LC2-P329R-E345R (antibody)
heavy: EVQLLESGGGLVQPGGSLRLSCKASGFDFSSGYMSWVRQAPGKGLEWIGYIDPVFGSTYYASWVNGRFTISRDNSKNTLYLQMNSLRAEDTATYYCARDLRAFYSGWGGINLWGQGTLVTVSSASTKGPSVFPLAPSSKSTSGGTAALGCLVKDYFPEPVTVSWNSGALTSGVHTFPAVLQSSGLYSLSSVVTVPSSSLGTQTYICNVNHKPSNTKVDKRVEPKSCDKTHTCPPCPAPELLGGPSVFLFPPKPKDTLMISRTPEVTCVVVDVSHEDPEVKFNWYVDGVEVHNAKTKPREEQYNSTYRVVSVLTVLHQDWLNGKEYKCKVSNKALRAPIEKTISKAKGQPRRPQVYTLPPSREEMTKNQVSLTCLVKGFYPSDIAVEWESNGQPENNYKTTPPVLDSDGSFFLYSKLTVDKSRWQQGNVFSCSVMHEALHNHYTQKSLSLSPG
light: AAVLTQSPSSLSASVGDRVTITCQSSQIVVNNNFLSWYQQKPGKAPKLLIYDASNLASGVPDRFSGSGSGTDFTFTISSLQPEDIATYYCLGGYDDDAENAFGGGTKVEIKRTVAAPSVFIFPPSDEQLKSGTASVVCLLNNFYPREAKVQWKVDNALQSGNSQESVTEQDSKDSTYSLSSTLTLSKADYEKHKVYACEVTHQGLSSPVTKSFNRGEC
notes: humanized; human IgG1 with P329R and E345R (Eu numbering), kappa; also called IgG1-CD134-003-HC6LC2-RR
**Q.** How did the “Average EC50 CD4+ T-cell proliferation (17 donors)” value [1] turn out when B1 was run?
**A.** Its value is 0.013 µg/ml and 0.085 nM.

**Q.** What about the “Average EC50 CD8+ T-cell proliferation (17 donors)” value [1] of the same binder?
**A.** Its value is 0.017 µg/ml and 0.115 nM.

**Q.** What about the “EC50 CD4+ T-cell proliferation, donor 1” value [1] of the same binder?
**A.** The value was 0.009 µg/ml and 0.057 nM.

**Q.** And the “EC50 CD4+ T-cell proliferation, donor 2” value [1]?
**A.** The value was 0.024 µg/ml and 0.159 nM.

**Q.** And the “EC50 CD4+ T-cell proliferation, donor 3” value [1]?
**A.** The value was 0.012 µg/ml and 0.084 nM.

**Q.** What about the “EC50 CD4+ T-cell proliferation, donor 4” value [1] of the same binder?
**A.** Its value is 0.007 µg/ml and 0.048 nM.

**Q.** And the “EC50 CD4+ T-cell proliferation, donor 5” value [1]?
**A.** The value was 0.008 µg/ml and 0.053 nM.

**Q.** What about the “EC50 CD4+ T-cell proliferation, donor 6” value [1] of the same binder?
**A.** The value was 0.006 µg/ml and 0.038 nM.

**Q.** What about the “EC50 CD4+ T-cell proliferation, donor 7” value [1] of the same binder?
**A.** Its value is 0.019 µg/ml and 0.129 nM.

**Q.** What about the “EC50 CD4+ T-cell proliferation, donor 8” value [1] of the same binder?
**A.** Its value is 0.016 µg/ml and 0.107 nM.

**Q.** And the “EC50 CD4+ T-cell proliferation, donor 9” value [1]?
**A.** The value was 0.007 µg/ml and 0.048 nM.

**Q.** And the “EC50 CD4+ T-cell proliferation, donor 10” value [1]?
**A.** Its value is 0.017 µg/ml and 0.111 nM.

**Q.** What about the “EC50 CD4+ T-cell proliferation, donor 11” value [1] of the same binder?
**A.** The value was 0.01 µg/ml and 0.067 nM.

**Q.** And the “EC50 CD4+ T-cell proliferation, donor 12” value [1]?
**A.** The value was 0.009 µg/ml and 0.06 nM.

**Q.** And the “EC50 CD4+ T-cell proliferation, donor 13” value [1]?
**A.** Its value is 0.019 µg/ml and 0.125 nM.

**Q.** What about the “EC50 CD4+ T-cell proliferation, donor 14” value [1] of the same binder?
**A.** Its value is 0.008 µg/ml and 0.052 nM.

**Q.** And the “EC50 CD4+ T-cell proliferation, donor 15” value [1]?
**A.** The value was 0.02 µg/ml and 0.132 nM.

**Q.** And the “EC50 CD4+ T-cell proliferation, donor 16” value [1]?
**A.** Its value is 0.008 µg/ml and 0.053 nM.

**Q.** What about the “EC50 CD4+ T-cell proliferation, donor 17” value [1] of the same binder?
**A.** Its value is 0.018 µg/ml and 0.119 nM.

**Q.** And the “EC50 CD8+ T-cell proliferation, donor 1” value [1]?
**A.** Its value is 0.028 µg/ml and 0.19 nM.

**Q.** What about the “EC50 CD8+ T-cell proliferation, donor 2” value [1] of the same binder?
**A.** Its value is 0.029 µg/ml and 0.195 nM.

**Q.** And the “EC50 CD8+ T-cell proliferation, donor 3” value [1]?
**A.** Its value is 0.013 µg/ml and 0.087 nM.

**Q.** And the “EC50 CD8+ T-cell proliferation, donor 4” value [1]?
**A.** Its value is 0.007 µg/ml and 0.048 nM.

**Q.** What about the “EC50 CD8+ T-cell proliferation, donor 5” value [1] of the same binder?
**A.** Its value is 0.009 µg/ml and 0.058 nM.

**Q.** And the “EC50 CD8+ T-cell proliferation, donor 6” value [1]?
**A.** The value was 0.008 µg/ml and 0.051 nM.

**Q.** And the “EC50 CD8+ T-cell proliferation, donor 7” value [1]?
**A.** The value was 0.041 µg/ml and 0.273 nM.

**Q.** And the “EC50 CD8+ T-cell proliferation, donor 8” value [1]?
**A.** The value was 0.005 µg/ml and 0.033 nM.

**Q.** And the “EC50 CD8+ T-cell proliferation, donor 9” value [1]?
**A.** The value was 0.008 µg/ml and 0.052 nM.

**Q.** What about the “EC50 CD8+ T-cell proliferation, donor 10” value [1] of the same binder?
**A.** The value was 0.016 µg/ml and 0.109 nM.

**Q.** What about the “EC50 CD8+ T-cell proliferation, donor 11” value [1] of the same binder?
**A.** Its value is 0.014 µg/ml and 0.095 nM.

**Q.** What about the “EC50 CD8+ T-cell proliferation, donor 12” value [1] of the same binder?
**A.** The value was 0.009 µg/ml and 0.058 nM.

**Q.** What about the “EC50 CD8+ T-cell proliferation, donor 13” value [1] of the same binder?
**A.** The value was 0.052 µg/ml and 0.346 nM.

**Q.** And the “EC50 CD8+ T-cell proliferation, donor 14” value [1]?
**A.** Its value is 0.008 µg/ml and 0.054 nM.

**Q.** And the “EC50 CD8+ T-cell proliferation, donor 15” value [1]?
**A.** The value was 0.018 µg/ml and 0.117 nM.

**Q.** What about the “EC50 CD8+ T-cell proliferation, donor 16” value [1] of the same binder?
**A.** Its value is 0.011 µg/ml and 0.074 nM.

**Q.** What about the “EC50 CD8+ T-cell proliferation, donor 17” value [1] of the same binder?
**A.** Its value is 0.017 µg/ml and 0.116 nM.

**Q.** What about the “EC50 (read off the curve)” value [2] of the same binder?
**A.** Its value is about 0.05 µg/mL.

**Q.** What about the “EC50 (read off the curve)” value [3] of the same binder?
**A.** The value was about 0.05 µg/mL.

**Q.** And the “EC50 (read off the curve)” value [4]?
**A.** The value was about 0.02 µg/mL.

**Q.** What about the IC50 [5] of the same binder?
**A.** The IC50 was 0.086 µg/mL.

B2: IgG1-CD134-003 (antibody)
heavy: not shown
light: AAVLTQTPSPVSAAVGGTVTIKCQSSQIVVNNNFLSWYQQKPGQPPKLLIYDASNLASGVPDRFSGSGSGTQFTLTISGVQSDDAATYYCLGGYDDDAENAFGGGTEVVVQRTVAAPSVFIFPPSDEQLKSGTASVVCLLNNFYPREAKVQWKVDNALQSGNSQESVTEQDSKDSTYSLSSTLTLSKADYEKHKVYACEVTHQGLSSPVTKSFNRGEC
notes: rabbit-human chimeric IgG1, wild-type Fc; also called parental chimeric antibody
**Q.** Does B2 bind [6]?
**A.** Result: binds

— patent publication US20240400703A1 (Genmab, published 2024)
